Measurements: US12570744 (AstraZeneca / MedImmune, dated 2026)

Columns and labels:
[1] = biological target: T1, recombinant human TIGIT protein (human, UniProt Q495A1 22-141); test: SPR (BIAcore T200), PD-1/TIGIT DuetMab sample, huTIGIT as ligand
T1 construct: In the Octet assay it was used biotinylated on streptavidin sensors or in solution; Construct and tags are not described; also called huTIGIT; human TIGIT antigen
T1 sequence (looked up): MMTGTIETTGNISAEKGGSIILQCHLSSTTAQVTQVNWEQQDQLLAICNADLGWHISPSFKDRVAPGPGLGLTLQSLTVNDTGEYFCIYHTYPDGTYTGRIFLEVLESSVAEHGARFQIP
Procedure: (§1) Binding experiments were carried out using a BIAcore T200 instrument (BIAcore).

[2] = biological target: T2, human PD-1 expressed on the cell surface of engineered Jurkat cells (human, UniProt Q15116 25-288); test: flow cytometry on PD-1^+ Jurkat cells, mean of two experiments
T2 construct: whole, on cells; also called Jurkat PD-1^+TIGIT^- cells; PD-1^+ Jurkat cells
T2 sequence (Q15116 25-288, change not shown): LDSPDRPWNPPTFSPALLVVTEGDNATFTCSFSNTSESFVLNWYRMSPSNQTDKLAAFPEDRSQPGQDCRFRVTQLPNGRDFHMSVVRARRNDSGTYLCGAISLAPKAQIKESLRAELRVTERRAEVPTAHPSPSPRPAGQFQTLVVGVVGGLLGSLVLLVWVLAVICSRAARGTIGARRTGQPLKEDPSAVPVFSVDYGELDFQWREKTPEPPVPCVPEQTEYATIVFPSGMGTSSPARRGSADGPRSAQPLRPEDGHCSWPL

[3] = biological target: T3, human TIGIT expressed on the cell surface (human, UniProt Q495A1 22-244); test: flow cytometry on TIGIT^+ Jurkat cells, Experiment #2
T3 construct: whole, on cells; also called Jurkat PD-1^-TIGIT^+ cells; TIGIT^+ Jurkat cells
T3 sequence (looked up): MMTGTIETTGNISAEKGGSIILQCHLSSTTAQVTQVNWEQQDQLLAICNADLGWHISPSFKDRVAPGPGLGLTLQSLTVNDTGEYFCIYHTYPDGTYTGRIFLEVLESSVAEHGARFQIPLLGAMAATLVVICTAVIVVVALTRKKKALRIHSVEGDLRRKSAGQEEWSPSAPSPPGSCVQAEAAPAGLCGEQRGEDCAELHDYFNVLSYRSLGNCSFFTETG

[4] = biological target: T2, human PD-1 expressed on the cell …; test: cell-based or functional assay
[5] = biological target: T4, human PD-1 and human TIGIT co-expressed on Jurkat PD-1^+TIGIT^+ cells (human, UniProt Q15116 25-288; Q495A1 22-244); test: flow cytometry on PD-1^+TIGIT^+ Jurkat cells, mean
T4 construct: whole, on cells; Two separate receptors on one cell, not a complex; It serves as the target where the read-out cannot be split between PD-1 and TIGIT; also called PD-1^+TIGIT^+ Jurkat; double expressing Jurkat
T4 sequence (Q15116 25-288, one chain of several): as the sequence (Q15116 25-288, change not shown) above
From the text: (§2) TIGIT⁻ cells. […] MFI=geometric mean fluorescence intensity; PD-1=programmed cell-death protein 1; TIGIT=T cell immunoreceptor with Ig and immunoreceptor tyrosine-based inhibitory motif domains. Cellular binding to human single expressing cell lines: Jurkat PD-1⁻ TIGIT⁺ and Jurkat PD-1⁺TIGIT⁻ or human double expressing Jurkat PD-1⁺ TIGIT⁺. Test and control article antibodies were detected with fluorescently conjugated goat anti human IgG secondary antibody and evaluated by flow cytometry.

[6] = biological target: T2, human PD-1 expressed on the cell …; test: flow cytometry on PD-1^+ Jurkat cells, Experiment #1
[7] = biological target: T5, cynomolgus TIGIT overexpressed on 293 cells (cynomolgus, UniProt A0A7N9I9V4 89-312); test: flow cytometry (MFI) on 293 cells overexpressing cynomolgus TIGIT; Kd row of the table under the graph, the concentration axis is [nM]
T5 construct: whole, on cells
T5 sequence (A0A7N9I9V4 entry or part of it): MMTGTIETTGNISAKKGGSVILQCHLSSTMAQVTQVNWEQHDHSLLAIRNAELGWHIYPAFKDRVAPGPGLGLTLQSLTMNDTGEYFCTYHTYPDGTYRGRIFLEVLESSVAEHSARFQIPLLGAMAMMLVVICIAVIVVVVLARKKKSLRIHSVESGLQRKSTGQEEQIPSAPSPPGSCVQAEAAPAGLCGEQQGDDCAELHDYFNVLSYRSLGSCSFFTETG

[8] = biological target: T2, human PD-1 expressed on the cell …; test: flow cytometry on PD-1^+TIGIT^- Jurkat cells, Experiment #2
[9] = biological target: T3, human TIGIT expressed on the cell …; test: flow cytometry (MFI) on 293 cells overexpressing human TIGIT; Kd row of the table under the graph, the concentration axis is [nM]
[10] = biological target: T4, human PD-1 and human TIGIT co-expressed …; test: cell-based or functional assay
[11] = biological target: T4, human PD-1 and human TIGIT co-expressed …; test: flow cytometry on PD-1^+TIGIT^+ Jurkat cells, Experiment #1; PD-1^+TIGIT^+ Jurkat cells, Experiment #1
From the text: as §2

[12] = biological target: T4, human PD-1 and human TIGIT co-expressed …; test: flow cytometry on PD-1^+TIGIT^+ Jurkat cells, Experiment #2
From the text: as §2

[13] = biological target: T3, human TIGIT expressed on the cell …; test: flow cytometry on PD-1^-TIGIT^+ Jurkat cells, Experiment #2
From the text: as §2

[14] = biological target: T2, human PD-1 expressed on the cell …; test: flow cytometry on PD-1^+TIGIT^- Jurkat cells, mean
[15] = biological target: T2, human PD-1 expressed on the cell …; test: flow cytometry on PD-1^+ Jurkat cells, Experiment #2
[16] = biological target: T3, human TIGIT expressed on the cell …; test: flow cytometry on TIGIT^+ Jurkat cells, mean of two experiments
[17] = biological target: T6, muTIGIT (mouse TIGIT, recombinant) (mouse (printed as 'mu'), UniProt P86176 29-148, limits assumed); test: SPR (BIAcore T200), PD-1/TIGIT DuetMab sample, muTIGIT as ligand
T6 construct: Ligand in the BIAcore assay; The construct is not described
T6 sequence (looked up): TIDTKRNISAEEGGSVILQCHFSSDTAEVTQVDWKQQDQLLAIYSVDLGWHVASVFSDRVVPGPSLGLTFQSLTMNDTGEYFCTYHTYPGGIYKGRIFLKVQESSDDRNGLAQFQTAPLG
Procedure: as §1

[18] = biological target: T3, human TIGIT expressed on the cell …; test: flow cytometry on TIGIT^+ Jurkat cells, Experiment #1
[19] = biological target: T3, human TIGIT expressed on the cell …; test: flow cytometry on PD-1^-TIGIT^+ Jurkat cells, mean
From the text: as §2

[20] = biological target: T3, human TIGIT expressed on the cell …; test: flow cytometry on TIGIT^+ Jurkat cells
[21] = biological target: T7, cyTIGIT (cynomolgus TIGIT, recombinant) (cynomolgus, UniProt A0A7N9I9V4 89-209); test: SPR (BIAcore T200), PD-1/TIGIT DuetMab sample, cyTIGIT as ligand
T7 construct: Ligand in the BIAcore assay; The construct is not described
T7 sequence (A0A7N9I9V4 entry or part of it): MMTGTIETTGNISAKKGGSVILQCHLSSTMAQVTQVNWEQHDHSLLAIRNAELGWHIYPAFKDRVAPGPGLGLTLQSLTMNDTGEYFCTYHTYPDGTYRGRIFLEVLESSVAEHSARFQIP
Procedure: as §1

[22] = biological target: T2, human PD-1 expressed on the cell …; test: flow cytometry on PD-1^+ Jurkat cells
[23] = biological target: T3, human TIGIT expressed on the cell …; test: cell-based or functional assay
[24] = biological target: T3, human TIGIT expressed on the cell …; test: flow cytometry on PD-1^-TIGIT^+ Jurkat cells, Experiment #1
From the text: as §2

[25] = biological target: T2, human PD-1 expressed on the cell …; test: flow cytometry on PD-1^+TIGIT^- Jurkat cells, Experiment #1

Kd [1]: 0.015 nM
koff [1]: 6.57e-05 s⁻¹
kon [1]: 4.37e+06 M⁻¹ s⁻¹
EC50 [2]: 3.22 nM
EC50 [3]: 0.375 nM
EC50 (nM), NFAT-luciferase reporter, Experiment #1 [4]: 4.7 nM
EC50 (nM), NFAT-luciferase reporter, Experiment #2 [4]: 3.83 nM
Fold Change of Mean EC50 vs. Anti-PD-1 [4]: 1.4 fold
Mean EC50 (nM), NFAT-luciferase reporter [4]: 4.26 nM
EC50 [5]: 0.632 nM
EC50 [6]: 0.944 nM
Kd [7]: 19.9 nM
EC50 [8]: 1.01 nM
Kd [9]: 3.42 nM
EC50 (nM), NFAT-luciferase reporter, Experiment #1 [10]: 5.57 nM
EC50 (nM), NFAT-luciferase reporter, Experiment #2 [10]: 6.07 nM
Fold Change of Mean EC50 vs. Anti-TIGIT and Anti-PD-1 combination [10]: 0.93 fold
Mean EC50 (nM), NFAT-luciferase reporter [10]: 5.82 nM
EC50 [11]: 0.495 nM
EC50 [12]: 0.769 nM
EC50 [13]: 0.346 nM
EC50 [14]: 0.797 nM
EC50 [15]: 5.49 nM
EC50 [16]: 0.339 nM
Kd [17]: 2.9 nM
koff [17]: 0.00631 s⁻¹
kon [17]: 2.17e+06 M⁻¹ s⁻¹
EC50 [18]: 0.303 nM
EC50 [19]: 0.314 nM
Fold Change vs. anti-TIGIT (mean EC50) [20]: 2.85 fold
Kd [21]: 41.1 nM
koff [21]: 0.0411 s⁻¹
kon [21]: 999000 M⁻¹ s⁻¹
Fold Change vs. anti-PD-1 (mean EC50) [22]: 4.82 fold
EC50 (nM), NFAT-luciferase reporter, Experiment #1 [23]: 17 nM
EC50 (nM), NFAT-luciferase reporter, Experiment #2 [23]: 13.7 nM
Fold Change of Mean EC50 vs. Anti-TIGIT [23]: 6.89 fold
Mean EC50 (nM), NFAT-luciferase reporter [23]: 15.3 nM
EC50 [24]: 0.282 nM
EC50 [25]: 0.584 nM
B1: AZD2936 (PD-1/TIGIT bispecific DuetMab, LO115/VAR1 VHGL-VLGL(M-I)) (bispecific antibody, human IgG1, kappa, lambda)
heavy 1: EVQLVESGGGLVQPGGSLRLSCAASGFTFSDYGMHWVRQAPGKGLEWVAYISSGSYTIYSADSVKGRFTISRDNAKNSLYLQMNSLRAEDTAVYYCARRAPNSFYEYYFDYWGQGTTVTVSSASTKGPSVFPLAPSSKSTSGGTAALGCLVKDYFPEPVTVSWNSGALTSGVHTFPAVLQSSGLYSLSSVVTVPSSSLGTQTYICNVNHKPSNTKVDKRVEPKSCDKTHTCPPCPAPEFEGGPSVFLFPPKPKDTLMISRTPEVTCVVVDVSHEDPEVKFNWYVDGVEVHNAKTKPREEQYNSTYRVVSVLTVLHQDWLNGKEYKCKVSNKALPASIEKTISKAKGQPREPQVCTLPPSREEMTKNQVSLSCAVKGFYPSDIAVEWESNGQPENNYKTTPPVLDSDGSFFLVSKLTVDKSRWQQGNVFSCSVMHEALHNHYTQKSLSLSPGK
light 1: QIVLTQSPATLSLSPGERATLSCSASSKHTNLYWSRHMYWYQQKPGQAPRLLIYLTSNRATGIPARFSGSGSGTDFTLTISSLEPEDFAVYYCQQWSSNPFTFGQGTKLEIKRTVAAPSVFIFPPSDEQLKSGTASVVCLLNNFYPREAKVQWKVDNALQSGNSQESVTEQDSKDSTYSLSSTLTLSKADYEKHKVYACEVTHQGLSSPVTKSFNRGEC
heavy 2: not shown
light 2: not shown
notes: also called VAR1 (LO115/VHGL-VLGL(M-I)); VL GL (CDRL1 M-I) + VH GL
